This note sets out measurements from patent US20040071694A1.

The assay concerns the target biotinylated EpoR (Abbott CHO cell derived ref.# RB69084:4) (UniProt P19235). Nature of the assay: immunofluorescence microscopy on EpoR-coated sheep red blood cells.

Sequence of biotinylated EpoR (Abbott CHO cell derived ref.# RB69084:4) (P19235 25-250 limits assumed): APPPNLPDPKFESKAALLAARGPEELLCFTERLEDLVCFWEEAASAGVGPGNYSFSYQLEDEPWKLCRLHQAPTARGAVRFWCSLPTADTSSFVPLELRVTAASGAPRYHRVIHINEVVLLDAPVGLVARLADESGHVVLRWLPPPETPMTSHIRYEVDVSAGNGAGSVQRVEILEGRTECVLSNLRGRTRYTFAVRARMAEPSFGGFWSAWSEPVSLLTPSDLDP

The substance “murine antiEpoR antibody (R&D Systems Cat.# MAB307)” returned an immunofluorescence score (arbitrary scale of 0-4) (score out of 4) of 4.
